In this test the target is human MMP-12 (human) (UniProt P39900). As to the kind of experiment: cell-based or functional assay.
Sequence of human MMP-12 (human) (P39900 106-470 limits assumed): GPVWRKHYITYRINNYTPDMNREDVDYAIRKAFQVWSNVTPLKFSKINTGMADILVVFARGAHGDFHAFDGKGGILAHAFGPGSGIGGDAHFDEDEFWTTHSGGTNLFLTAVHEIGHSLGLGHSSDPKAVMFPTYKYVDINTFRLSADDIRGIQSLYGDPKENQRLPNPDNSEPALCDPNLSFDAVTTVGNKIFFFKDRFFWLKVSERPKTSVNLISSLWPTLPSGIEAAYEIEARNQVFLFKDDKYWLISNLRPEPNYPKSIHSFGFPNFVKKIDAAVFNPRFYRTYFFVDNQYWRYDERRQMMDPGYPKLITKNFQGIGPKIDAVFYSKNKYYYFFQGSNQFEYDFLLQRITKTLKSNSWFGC

B1: 539B-M0039-F01 (Fab, V domains shown)
VH: EVQLLESGGGLVQPGGSLRLSCAASGFTFSRYWMDWVRQAPGKGLEWVSGIYPSGGYTLYADSVKGRFTISRDNSKNTLYLQMNSLRAEDTAVYYCARHGDYMDVWGKGTTVTVSS
VL: NIQMTQSPSSVSASVGDRVTITCRASQDINYWLAWYQQKPGKAPKLLIYAASSLQSGVPSRFSGSGSGTDFTLTISSLQPEDFATYYCQRANSFPYTFGQGTKLEIK
With B1, the % of activity left with 100 nM in assay 04 Oct. 2006 worked out at 69.4% and the % of activity left with 100 nM in assay 29 Aug. 2006 was found to be 57.8%.

B2: 539B-M0041-G01 (Fab, V domains shown)
VH: EVQLLESGGGLVQPGGSLRLSCAASGFTFSYYPMAWVRQAPGKGLEWVSYISSSGGLTTYADSVKGRFTISRDNSKNTLYLQMNSLRAEDTAVYYCARSPTYYDFWSGYWAGIFDYWGQGTLVTVSS
VL: DIQMTQSPSSLSASVGDRVTITCRASQSISYFLNWYQQKPGKAPKLLIYAASTLQGGVPSRFRGSGSGTDFTLTISSLQPEDFATYYCQHSYSTPPITFGPGTKVDIK
Take B2: the % of activity left with 100 nM in assay 04 Oct. 2006 stood at 109% and the % of activity left with 100 nM in assay 29 Aug. 2006 was 84.8%.

B3: 539B-M0016-D01 (Fab, V domains shown)
VH: EVQLLESGGGLVQPGGSLRLSCAASGFTFSEYNMPWVRQAPGKGLEWVSYIYSSGGSTEYADSVKGRFTISRDNSKNTLYLQMNSLRAEDMAVYYCAKDLWEDSSTWGYGMDVWGQGTTVTVSS
VL: QSELTQPPSVSVSPGQTATITCSGDVSVHKSFCWYQQRPGQSPVLVIYQIDKRPSGVPERFSGSISGTTATLTISGTQATDEADYYCQGWDSTTYYVFGTGTKVTVL
For the molecule B3, the % of activity left with 100 nM in assay 04 Oct. 2006 worked out at 48.1%.

B4: 539B-M0009-H08 (Fab, V domains shown)
VH: EVQLLESGGGLVQPGGSLRLSCAASGFTFSMYWMFWVRQAPGKGLEWVSSISSSGGHTFYADSVKGRFTISRDNSKNTLYLQMNSLRAEDTAVYYCARGSYSGYDPFDYWGRGTLVTVSS
VL: QYELTQPPALSVAPGETATITCGGDKIGRKSVNWYQQKAGQAPVLVIFYDNDRPSGITGRFSGSNSGNSATLTISRVEAGDEADFYCQVWGPNDFPLFGGGTKLTVL
For the molecule B4, the % of activity left with 100 nM in assay 04 Oct. 2006 is 103%.

B5: 539B-M0042-B06 (Fab, V domains shown)
VH: EVQLLESGGGLVQPGGSLRLSCAASGFTFSFYHMEWVRQAPGKGLEWVSSISPSGGHTDYADSVKGRFTISRDNSKNTLYLQMNSLRAEDTAVYYCASLLSGTWGQGTLVTVSS
VL: DIQMTQSPDTLSLSPGERATLSCRASQTISSTFLAWYQQKPGQAPRLLIYGASTRAAGIPDRFIGSGSGTDFTLTISSLEPEDSAVYYCQQYDRSPTFGGGTKVEIK
B5: the % of activity left with 100 nM in assay 04 Oct. 2006 amounted to 53.6%.

B6: 539B-M0034-C04 (Fab, V domains shown)
VH: EVQLLESGGGLVQPGGSLRLSCAASGFTFSEYPMYWVRQAPGKGLEWVSVIYPSGGWTDYADSVKGRFTISRDNSKNTLYLQMNSLRAEDTAVYYCARMAVTGGSRFDYWGQGTLVTVSS
VL: DIQMTQSPSSLSASVGDRVSITCRASQNINSYLNWYQQKVGKAPKLLIFGAYTLHSGAPSRFSGSGSGTDFTLTISSLQPEDVATYYCQQTYTSYSFAQGTKLEIK
Take B6: the % of activity left with 100 nM in assay 04 Oct. 2006 was 38.6% and the % of activity left with 100 nM in assay 29 Aug. 2006 worked out at 39.1%.

B7: 539B-M0041-B05 (Fab, V domains shown)
VH: EVQLLESGGGLVQPGGSLRLSCAASGFTFSEYPMYWVRQAPGKGLEWVSVIYPSGGWTDYADSVKGRFTISRDNSKNTLYLQMNSLRAEDTAVYYCARMAVTGGSRFDYWGQGTLVTVSS
VL: DIQMTQSPSSLSASVGDRVSITCRASQNINSYLNWYQQKVGKAPKLLIFGAYTLHSGAPSRFSGSGSGTDFTLTISSLQPEDVATYYCQQTYTSYSFAQGTKLEIK
As to B7, the % of activity left with 100 nM in assay 04 Oct. 2006 was 35.1%.

The values above are taken from patent US8114968.
